Experimental findings from paper PMC6082870, “Molecular architecture of the multifunctional collagen lysyl hydroxylase and glycosyltransferase LH3” (Nature Communications, 2018) are described below.

Residue numbers refer to the chain shown, from its start. Names and notes keep the numbering of the source.

For orientation: stoichiometry N means a count of units in the complex or per binding partner.

Data set [1] deals with the molecule itself. The data set is described as follows: not stated; oligomeric assembly of LH3 N223S, Supplementary Fig. 11B; method not given.
Data set [2] deals with the molecule itself. The data set is described as follows: SEC-SAXS; 50 uL LH3 at 4 mg/mL on Superdex 200 PC 3.2/300 Increase, 25 mM HEPES/NaOH, 200 mM NaCl, pH 8.0, online SAXS at ESRF BM29. On the technique in general: In gel filtration, larger molecules generally elute earlier.
Data set [3] concerns the molecule itself. Nature of the data set: SEC; analytical size exclusion, Superdex 200 5/150 GL, 25 mM HEPES/NaOH, 200 mM NaCl, pH 8.0.

B1: LH3 N223S pathogenic variant (enzyme, human, UniProt O60568 25-738, looked up)
chain: SDRPRGRDPVNPEKLLVITVATAETEGYLRFLRSAEFFNYTVRTLGLGEEWRGGDVARTVGGGQKVRWLKKEMEKYADREDMIIMFVDSYDVILAGSPTELLKKFVQSGSRLLFSAESFCWPEWGLAEQYPEVGTGKRFLNSGGFIGFATTIHQIVRQWKYKDDDDDQLFYTRLYLDPGLREKLSLNLDHKSRIFQNLSGALDEVVLKFDRNRVRIRNVAYDTLPIVVHGNGPTKLQLNYLGNYVPNGWTPEGGCGFCNQDRRTLPGGQPPPRVFLAVFVEQPTPFLPRFLQRLLLLDYPPDRVTLFLHNNEVFHEPHIADSWPQLQDHFSAVKLVGPEEALSPGEARDMAMDLCRQDPECEFYFSLDADAVLTNLQTLRILIEENRKVIAPMLSRHGKLWSNFWGALSPDEYYARSEDYVELVQRKRVGVWNVPYISQAYVIRGDTLRMELPQRDVFSGSDTDPDMAFCKSFRDKGIFLHLSNQHEFGRLLATSRYDTEHLHPDLWQIFDNPVDWKEQYIHENYSRALEGEGIVEQPCPDVYWFPLLSEQMCDELVAEMEHYGQWSGGRHEDSRLAGGYENVPTVDIHMKQVGYEDQWLQLLRTYVGPMTESLFPGYHTKARAVMNFVVRYRPDEQPSLRPHHDSSTFTLNVALNHKGLDYEGGGCRFLRYDCVISSPRKGWALLHPGRLTHYHEGLPTTWGTRYIMVSFVDP
notes: human LH3 (PLOD3), GenBank BC011674.2, devoid of the N-terminal signal peptide, with the pathogenic mutation N223S; The mutation was reported to add an N-linked glycosylation on Asn221; not shown: 6xHis, N-terminal, cleaved
For B1, the “stoichiometry N” value in data set [1] turned out to be 2.

B2: human lysyl hydroxylase 3 (LH3/PLOD3), wild type (enzyme, UniProt O60568 25-738, looked up)
chain: B1 chain with S199N
modifications: N-linked glycosylations at Asn63 and Asn548
notes: a vector signal peptide, 6xHis tag and TEV site precede the BamHI site, so a few vector residues may remain after TEV cleavage; also called wild-type LH3; full-length human LH3; not shown: 6xHis, N-terminal, cleaved
Turning to B2, in data set [2], the “stoichiometry N” value turned out to be 2.

B3: LH3 L715D mutant (enzyme, human, UniProt O60568 25-738, looked up)
chain: B1 chain with S199N, L691D
notes: human LH3 (PLOD3), GenBank BC011674.2, devoid of the N-terminal signal peptide, with L715D; not shown: 6xHis, N-terminal, cleaved
As for B3, the binding result in data set [3] is recorded as “binds”.

B4: LH3 W148N-L150T glycosylated control mutant (enzyme, human, UniProt O60568 25-738, looked up)
chain: B1 chain with W124N, L126T, S199N
modifications: additional glycosylation at the compact N-terminal (crystal contact) interface, introduced by W148N-L150T
notes: human LH3 (PLOD3), GenBank BC011674.2, devoid of the N-terminal signal peptide, with W148N and L150T; not shown: 6xHis, N-terminal, cleaved
For B4, in data set [3], the “stoichiometry N” value amounted to 2.
